Reference: US20240182530A1

Legend:
sfGFP-SpyTag003 Loop A [1] = test: isopeptide bond formation, SDS-PAGE densitometry; reference SpyTag003 as a terminal fusion with SpyCatcher003
[2] = target: Gre2p-SpyTag003 Loop B (Saccharomyces cerevisiae) (UniProt Q12068); test: isopeptide bond formation, 5 µM each, PBS pH 7.5, 25 °C, SDS-PAGE densitometry
sfGFP-SpyTag003 Loop A [3] = test: as above

Chain of UniProt Q12068 (Q12068 other isoform, or with tags, fused parts or gaps): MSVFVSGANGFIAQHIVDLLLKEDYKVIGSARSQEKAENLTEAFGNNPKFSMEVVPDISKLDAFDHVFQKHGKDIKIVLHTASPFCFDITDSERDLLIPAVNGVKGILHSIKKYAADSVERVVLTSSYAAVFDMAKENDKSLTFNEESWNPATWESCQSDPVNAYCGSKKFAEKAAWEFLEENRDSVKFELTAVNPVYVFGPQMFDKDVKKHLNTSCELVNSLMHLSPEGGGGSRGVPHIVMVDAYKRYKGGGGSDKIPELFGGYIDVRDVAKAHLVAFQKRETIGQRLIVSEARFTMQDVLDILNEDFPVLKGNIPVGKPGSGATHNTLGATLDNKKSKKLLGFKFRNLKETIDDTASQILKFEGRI

## SpyCatcher003 (designed binder)
sfGFP-SpyTag003 Loop A [1]
  fold slower than SpyTag003 as a terminal fusion: 6000 fold
[2]
  second-order rate constant: 93 M⁻¹ s⁻¹
sfGFP-SpyTag003 Loop A [3]
  second-order rate constant: 87 M⁻¹ s⁻¹
